Data from patent US12458818B2, “Anti-trophoblast cell surface antigen 2 (TROP2) antibodies and antibody drug conjugates comprising same” (CSPC MEGALITH BIOPHARMACEUTICAL CO., LTD., priority 2019, dated 2025).
Values joined by “and” are separate entries in the source; they are usually repeats but may differ in a detail not shown here. Equal values may be shown once.

Key:
Assay type in all cases: in vivo, mouse
[1] = test system: xenografted MDA-MB-468 human breast adenocarcinoma tumors; assay: MDA-MB-468 xenograft efficacy in female nude mice (Example 4); settings: 4 mg/kg IV once on Day 0
Description: The anti-tumor activity of DP002-HC4LC5-ADC was evaluated as a single agent in female nude mice bearing xenografted MDA-MB-468 human breast adenocarcinoma tumors.
(§1) Each mouse was inoculated with 5×10^6 MDA-MB-468 tumor cells (in 0.1 mL, 1:1 with Matrigel) at the right flank by subcutaneous administration under sterile conditions. When the tumors reached a volume of ˜150 mm^3, mice were randomized into one of 7 treatment groups (6 mice per group), as outlined in Table 12, and treatments began. All doses of DP002-HC4LC5-ADC were administered by intravenous injection via tail vein injection.
(§2) Tumor size and animal body weight were measured twice per week. Clinical signs were recorded daily. Tumors were measured using a caliper in two dimensions (i.e., length (a) and width (b)), and tumor volumes were estimated from measurements of the two diameters of the individual tumors as follows: Tumor Volume (mm^3)=(a×b^2)/2.
(§3) Average tumor growth curves for each treatment group were plotted with the observation time on the X-axis, and corresponding tumor volume (geometric mean) on the Y-axis. A two-tailed t-test was used to analyze the statistical significance of any differences between the treatment groups and the control group. Tumor Growth Inhibition (TGI) was calculated after each tumor volume measurement according to the formula: % TGI=(TVcn−TVtn)/TVcn×100, where TVtn and TVcn are the mean tumor Volume of treated and control groups, respectively. Body weight change (CBW %) was calculated after each body weight measurement according to the formula: CBW %=(BWn−BW0)/BW0×100, where BWn is the body weight at day n and BW0 is the body weight at day 0 respectively.

[2] = Body weight and tolerability in xenografted nude mice (Example 4)
Description: as §1, §2, §3

[3] = Side effects in xenografted NOD/SCID mice (Example 3); settings: 1 mg/kg or 4 mg/kg intravenous, single dose on Day 0
Description: (§4) The efficacies of two anti-TROP2-MMAE antibody drug conjugates, DP002-HC1LC5-ADC (DAR ˜2) and DP002-HC4LC5-ADC (DAR ˜1.6-2.3), in inhibiting tumor growth in mice bearing human MDA-MB-468 breast adenocarcinoma tumor xenografts were tested. DP002-HC1LC5-ADC comprises an anti-TROP antibody that comprises HC 1 (SEQ ID NO: 52) and LC5 (SEQ ID NO: 62); DP002-HC4LC5-ADC comprises an anti-TROP antibody that comprises HC 4 (SEQ ID NO: 44) and LC5 (SEQ ID NO: 62). Briefly, 48 NOD/SCID mice (female, 6-8 weeks of age) were implanted with 0.1 ml MDA-MB-468 cells (lx 10^7 cell/ml). When the tumors sizes reached above 181 mm^3 (34 days after tumor inoculation), the mice were sorted randomly into 7 groups (6 mice/group) and treated according to the schedule provided in Table 10 below: […]

[4] = test system: human MDA-MB-468 breast adenocarcinoma tumor xenografts; assay: MDA-MB-468 xenograft efficacy in NOD/SCID mice (Example 3); settings: single dose on Day 0; for T/C (%) / TGI (%): Day 42
Description: as §4

[5] = 2 mg/kg IV Day 0 + 1 mg/kg IV Days 7, 14

B1: DP002-HC4LC5-ADC: anti-TROP2-MMAE antibody drug conjugate (DAR ~1.6-2.3) of antibody with HC4 and LC5 (SEQ ID NO: 62) (conjugate)
VH: EVQLVQSGAEVKKPGESLKISCKGSGYTFTDYSINWVRQMPGKGLEWMGVISTYYGDASYNQKFKGQVTISADKSISTAYLQWSSLKASDTAMYYCARYGDGYNQFDYWGQGTLVTVSS
light: DIQMTQSPSSLSASVGDRVTITCRVSESVDSYGNNFMHWYQQKPGKAPKLLIYRASNLESGVPSRFSGSGSGTDFTFTISSLQPEDIATYYCQQSYEDPYTFGGGTKLEIKRTVAAPSVFIFPPSDEQLKSGTASVVCLLNNFYPREAKVQWKVDNALQSGNSQESVTEQDSKDSTYSLSSTLTLSKADYEKHKVYACEVTHQGLSSPVTKSFNRGEC
modifications: MMAE conjugate
With B1 the “Tumor Volume (mm^3, Mean ± SEM) Day 70” value [1] was 293.26 mm^3 and 293.26 ± 288.40** mm^3, the “Tumor Weight (g, Mean ± SEM) Day 84” value [1] was 0.346 ± 0.341 g and the “Number of mice demonstrating full tumor regression at Week 4 following first dose” value ([1]; n = 6 unless specified) was 4. The “Number of mice demonstrating full tumor regression at Week 5 following first dose” value ([1]; n = 6 unless specified) was 4, the “Number of mice demonstrating full tumor regression at Week 6 following first dose” value ([1]; n = 6 unless specified) was 4 and the “Number of mice demonstrating full tumor regression at Week 7 following first dose” value ([1]; n = 6 unless specified) was 4. For the same molecule, the “Number of mice demonstrating full tumor regression at Week 8 following first dose” value ([1]; n = 6 unless specified) was 4, the “Number of mice demonstrating full tumor regression at Week 9 following first dose” value ([1]; n = 6 unless specified) was 4 and the “Number of mice demonstrating full tumor regression at Week 10 following first dose” value ([1]; n = 6 unless specified) was 4. The “Number of mice demonstrating full tumor regression at Week 11 following first dose” value ([1]; n = 6 unless specified) was 4/6 and 4, the “Number of mice demonstrating full tumor regression at Week 12 following first dose” value ([1]; n = 6 unless specified) was 4 and the “TGI on Day 70, excluding the outlier” value ([1]; outlier animal excluded) was 99.64%. The “average tumor size on Day 70, excluding the outlier” value ([1]; outlier animal excluded) was 4.89 mm^3, the “BWC (%) Day 70 (body weight change vs Day 0)” value ([2]; 1 mg/kg IV Days 0, 7, 14, 21) was 8.95% and the “Body Weight (g, Mean ± SEM) Day 70” value ([2]; 1 mg/kg IV Days 0, 7, 14, 21) was 21.70 ± 0.30 g. For the same molecule, the “Body Weight (g, Mean ± SEM) Day 84” value ([2]; 1 mg/kg IV Days 0, 7, 14, 21) was 21.24 ± 0.26 g, the “Drug-related Death” value ([2]; 1 mg/kg IV Days 0, 7, 14, 21) was 0 and the “average body weight increase (%) on Day 84 compared to Day 0” value (“average body weight increase (%)” below) ([2]; 1 mg/kg IV Days 0, 7, 14, 21) was 6.66%. For the same molecule, the “average body weight increase on Day 70 compared to Day 0” value ([2]; 1 mg/kg IV Days 0, 7, 14, 21) was 1.76 g, the “average body weight increase on Day 84 compared to Day 0” value ([2]; 1 mg/kg IV Days 0, 7, 14, 21) was 1.30 g and the “BWC (%) Day 70 (body weight change vs Day 0)” value ([2]; 1 mg/kg IV once on Day 0) was 15.09%. The “Body Weight (g, Mean ± SEM) Day 70” value ([2]; 1 mg/kg IV once on Day 0) was 22.01 ± 0.50 g, the “Body Weight (g, Mean ± SEM) Day 84” value ([2]; 1 mg/kg IV once on Day 0) was 22.06 ± 0.64 g and the “Drug-related Death” value ([2]; 1 mg/kg IV once on Day 0) was 0. For the same molecule, the “average body weight increase (%)” value ([2]; 1 mg/kg IV once on Day 0) was 12.37%, the “average body weight increase on Day 70 compared to Day 0” value ([2]; 1 mg/kg IV once on Day 0) was 2.87 g and the “average body weight increase on Day 84 compared to Day 0” value ([2]; 1 mg/kg IV once on Day 0) was 2.92 g. For the same molecule, the “BWC (%) Day 70 (body weight change vs Day 0)” value [2, 5] was 8.89%, the “Body Weight (g, Mean ± SEM) Day 70” value [2, 5] was 21.18 ± 0.49 g and the “Body Weight (g, Mean ± SEM) Day 84” value [2, 5] was 21.31 ± 0.46 g. For the same molecule, the “Drug-related Death” value [2, 5] was 0, the “average body weight increase (%)” value [2, 5] was 10.24% and the “average body weight increase on Day 70 compared to Day 0” value [2, 5] was 1.72 g. For the same molecule, the “average body weight increase on Day 84 compared to Day 0” value [2, 5] was 1.85 g, the “BWC (%) Day 70 (body weight change vs Day 0)” value ([2]; 2 mg/kg IV once on Day 0) was 11.00% and the “Body Weight (g, Mean ± SEM) Day 70” value ([2]; 2 mg/kg IV once on Day 0) was 21.63 ± 0.39 g. The “Body Weight (g, Mean ± SEM) Day 84” value ([2]; 2 mg/kg IV once on Day 0) was 21.75 ± 0.55 g, the “Drug-related Death” value ([2]; 2 mg/kg IV once on Day 0) was 0 and the “average body weight increase (%)” value ([2]; 2 mg/kg IV once on Day 0) was 10.84%. The “average body weight increase on Day 70 compared to Day 0” value ([2]; 2 mg/kg IV once on Day 0) was 2.14 g, the “average body weight increase on Day 84 compared to Day 0” value ([2]; 2 mg/kg IV once on Day 0) was 2.26 g and the “BWC (%) Day 70 (body weight change vs Day 0)” value ([2]; 4 mg/kg IV once on Day 0) was 10.87%. The “Body Weight (g, Mean ± SEM) Day 70” value ([2]; 4 mg/kg IV once on Day 0) was 21.72 ± 0.44 g, the “Body Weight (g, Mean ± SEM) Day 84” value ([2]; 4 mg/kg IV once on Day 0) was 20.96 ± 0.55 g and the “Drug-related Death” value ([2]; 4 mg/kg IV once on Day 0) was 0. The “average body weight increase (%)” value ([2]; 4 mg/kg IV once on Day 0) was 6.99%, the “average body weight increase on Day 70 compared to Day 0” value ([2]; 4 mg/kg IV once on Day 0) was 2.13 g and the “average body weight increase on Day 84 compared to Day 0” value ([2]; 4 mg/kg IV once on Day 0) was 1.37 g. For the same molecule, the tolerability in mice ([2]; maximum cumulative dose of 4 mg/kg IV (single or split doses)) was “well tolerated”, the “side effects based on changes in body weight, survival and gross observations” value [3] was “No obvious side effects” and the “Tumor Size (mm^3) at Day 42, mean ± SEM” value ([4]; 1 mg/kg intravenous) was 620 ± 61 mm^3. The “Tumor Size (mm^3) at Day 42, mean ± SEM” value ([4]; 4 mg/kg intravenous) was 4 ± 2 mm^3, the “average tumor volume on Day 56” value ([4]; 4 mg/kg intravenous) was 3 mm^3 and the “T/C (%)” value ([4]; 1 mg/kg intravenous) was 82%. The “TGI (%)” value ([4]; 1 mg/kg intravenous) was 18%, the “T/C (%)” value ([4]; 4 mg/kg intravenous) was 0% and the “TGI (%)” value ([4]; 4 mg/kg intravenous) was 100%.
